Patent US6245531

What was measured:
[1] = target: T1, Ecdysone receptor EcR (878 aa ORF, Table 2) (Drosophila melanogaster) (UniProt P34021); assay: pulldown; details: anti-EcR immunoprecipitation on magnetic beads; 180 mM KCl EcR buffer pH 7.0, poly dI/dC, 25 C; no hormone stated; antibody dependent; scale: fold preference over average vector sequences
T1 sequence: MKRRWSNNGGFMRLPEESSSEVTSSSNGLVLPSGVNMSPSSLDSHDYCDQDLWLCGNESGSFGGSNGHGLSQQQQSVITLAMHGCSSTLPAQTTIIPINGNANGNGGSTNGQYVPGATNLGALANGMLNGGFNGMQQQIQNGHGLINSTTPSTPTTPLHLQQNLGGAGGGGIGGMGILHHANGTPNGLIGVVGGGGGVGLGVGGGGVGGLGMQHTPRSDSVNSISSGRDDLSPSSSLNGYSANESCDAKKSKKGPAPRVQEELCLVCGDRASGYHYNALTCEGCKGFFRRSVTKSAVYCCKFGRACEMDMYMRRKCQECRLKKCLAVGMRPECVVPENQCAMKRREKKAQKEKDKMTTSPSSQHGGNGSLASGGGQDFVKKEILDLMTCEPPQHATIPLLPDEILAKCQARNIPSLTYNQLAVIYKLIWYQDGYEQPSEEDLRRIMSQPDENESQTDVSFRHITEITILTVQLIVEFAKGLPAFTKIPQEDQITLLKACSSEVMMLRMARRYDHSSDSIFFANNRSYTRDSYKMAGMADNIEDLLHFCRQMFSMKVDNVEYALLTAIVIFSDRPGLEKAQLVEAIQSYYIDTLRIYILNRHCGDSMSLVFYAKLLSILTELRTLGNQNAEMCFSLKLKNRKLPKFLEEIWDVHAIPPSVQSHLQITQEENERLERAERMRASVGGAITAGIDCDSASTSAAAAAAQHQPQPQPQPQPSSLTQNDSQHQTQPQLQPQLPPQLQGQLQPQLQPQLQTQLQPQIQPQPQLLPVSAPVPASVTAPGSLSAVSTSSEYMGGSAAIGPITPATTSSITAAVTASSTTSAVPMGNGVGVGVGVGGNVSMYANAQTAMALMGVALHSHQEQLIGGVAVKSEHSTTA

[2] = target: T2, Endogenous ecdysone receptor of Sch-2 cells (EcR) (Drosophila melanogaster) (UniProt P34021); assay: cell_activity; details: 20-OH ecdysone 2e-6 M, beta-galactosidase reporter
T2 sequence: T1 sequence

Sequence | binding signal [1] | activity (fold induction by ecdysone) [2]
TCGAGAGACAAGGGTTCAATGCACTTGTCCAATG / TCGACATTGGACAAGTGCATTGAACCCTTGTCTC | 1000 | 
TCGAGAGACAAGGGTTCAATGCACTTGTCCAATG / TCGACATTGGACAAGTGCATTGAACCCTTGTCTC [pEcRE/Adh/betagal reporter, 7 x EcRE upstream of Adh -34+53] |  | 2000
